What was measured:
pNPB = assay: Proxy for plastic degradation [Relative activity]
PET = assay: Proxy for plastic degradation [Released monomer concentration (HPLC/LC-MS) (terephthalic acid)]; settings: pH 8

B1: unnamed (protein)
chain: MPITARNTLASLLLASSALLLSGTAFAANPPGGDPDPGCQTDCNYQRGPDPTDAYLEAASGPYTVSTIRVSSLVPGFGGGTIHYPTNAGGGKMAGIVVIPGYLSFESSIEWWGPRLASHGFVVMTIDTNTIYDQPSQRRDQIEAALQYLVNQSNSSSSPISGMVDSSRLAAVGWSMGGGGTLQLAADGGIKAAIALAPWNSSINDFNRIQVPTLIFACQLDAIAPVALHASPFYNRIPNTTPKAFFEMTGGDHWCANGGNIYSALLGKYGVSWMKLHLDQDTRYAPFLCGPNHAAQTLISEYRGNCPY
pNPB; pH 3
  Proxy for plastic degradation: 0%
pNPB; pH 4
  Proxy for plastic degradation: 0%
pNPB; pH 5
  Proxy for plastic degradation: 0%
pNPB; pH 6
  Proxy for plastic degradation: 4%
pNPB; pH 7, 17 °C
  Proxy for plastic degradation: 63%
pNPB; pH 7, 22 °C
  Proxy for plastic degradation: 70%
pNPB; pH 7, 28 °C
  Proxy for plastic degradation: 71%
pNPB; pH 7, 37 °C
  Proxy for plastic degradation: 77%
pNPB; pH 7, 42 °C
  Proxy for plastic degradation: 76%
pNPB; pH 7, 55 °C
  Proxy for plastic degradation: 82%
pNPB; pH 7, 60 °C
  Proxy for plastic degradation: 100%
pNPB; pH 7, 70 °C
  Proxy for plastic degradation: 100%
pNPB; pH 7, 80 °C
  Proxy for plastic degradation: 81%
pNPB; pH 7, 90 °C
  Proxy for plastic degradation: 82%
pNPB; pH 8
  Proxy for plastic degradation: 100%
pNPB; pH 9.2
  Proxy for plastic degradation: 99%
pNPB; pH 10.2
  Proxy for plastic degradation: 90%
PET
  Proxy for plastic degradation: 900 µM

B2: unnamed (protein)
chain: MNVLTKCKLALGIIAIFFSLPSFAVPCSDCSNGFERGQVPRVDQLESSRGPYSVKTINVSRLARGFGGGTIHYSTESGGQQGIIAVVPGYVSLEGSIKWWGPRLASWGFTVITIDTNTIYDQPDSRASQLSAAIDYVIDKGNDRSSPIYGLVDPNRVGVIGWSMGGGGSLKLATDRKIDAVIPQAPWYLGLSRFSSITSPTMIIACQADVVAPVSVHASRFYNQIPGTTPKAYFEIALGSHFCANTGYPSEDILGRNGVAWMKRFIDKDERYTQFLCGQNFDSSLRVSEYRDNCSYY
pNPB; pH 3
  Proxy for plastic degradation: 0%
pNPB; pH 4
  Proxy for plastic degradation: 0%
pNPB; pH 5
  Proxy for plastic degradation: 0%
pNPB; pH 6
  Proxy for plastic degradation: 11%
pNPB; pH 7, 17 °C
  Proxy for plastic degradation: 60%
pNPB; pH 7, 22 °C
  Proxy for plastic degradation: 60%
pNPB; pH 7, 28 °C
  Proxy for plastic degradation: 62%
pNPB; pH 7, 37 °C
  Proxy for plastic degradation: 72%
pNPB; pH 7, 42 °C
  Proxy for plastic degradation: 82%
pNPB; pH 7, 55 °C
  Proxy for plastic degradation: 100%
pNPB; pH 7, 60 °C
  Proxy for plastic degradation: 81%
pNPB; pH 7, 70 °C
  Proxy for plastic degradation: 81%
pNPB; pH 7, 80 °C
  Proxy for plastic degradation: 55%
pNPB; pH 7, 90 °C
  Proxy for plastic degradation: 35%
pNPB; pH 8
  Proxy for plastic degradation: 100%
pNPB; pH 9.2
  Proxy for plastic degradation: 76%
pNPB; pH 10.2
  Proxy for plastic degradation: 48%
